In patent publication US9255256B2, “Expression of functional cytochorome P450 monooxygenase system in enterobacteria” (priority 1996, dated 2016):
Where two headings read alike, the source gives them in different places.

Key:
[1] = tested on: CYP3A4; experiment: Testosterone 6β-hydroxylase assay, bacterial membrane fractions; type: biochemical, human; conditions: in the presence of cumene hydroperoxide, no reductase
Target sequence in this assay (P08684 19-503 limits assumed): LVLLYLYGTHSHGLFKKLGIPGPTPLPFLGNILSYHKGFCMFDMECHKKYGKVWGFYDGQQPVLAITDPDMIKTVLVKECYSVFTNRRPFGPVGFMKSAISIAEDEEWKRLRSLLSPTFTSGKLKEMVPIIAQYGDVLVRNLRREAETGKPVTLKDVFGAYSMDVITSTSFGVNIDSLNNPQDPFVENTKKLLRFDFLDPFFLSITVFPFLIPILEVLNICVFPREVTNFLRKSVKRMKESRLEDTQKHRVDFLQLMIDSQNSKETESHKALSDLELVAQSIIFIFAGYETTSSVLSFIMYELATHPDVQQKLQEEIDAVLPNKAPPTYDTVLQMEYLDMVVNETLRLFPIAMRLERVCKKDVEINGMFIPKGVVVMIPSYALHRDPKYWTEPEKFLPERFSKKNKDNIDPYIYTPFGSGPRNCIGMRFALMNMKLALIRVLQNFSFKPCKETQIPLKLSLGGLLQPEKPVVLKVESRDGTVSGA
Protocol: Assays were carried out with cells and membrane fractions. In both cases, approximately 100 pmol P450 was incubated with shaking in TSE containing 30 mM MgCl2. The final testosterone concentration was 0.2 mM. Where membranes were used, an NADPH generating system was is added (final concentration 1 mM NADP, 5 mM glucose-6-phosphate, 1 unit glucose-6-phosphate dehydrogenase). Reactions were carried out at 37° C. for 5 minutes, then stopped by addition of 1 ml ice-cold methanol and placed on ice for 10 minutes. Following centrifugation, supernatants were diluted with an equal volume of ice-cold water, and the testosterone metabolites extracted using Isolute C18 columns (IST Ltd), and eluted in 1 ml methanol. […] The yield of the 6β-hydroxytestosterone was calculated by reference to a standard of known concentration, and this allowed determination of the specific activity of the recombinant CYP3A4 towards testosterone.
Direct determination of the catalytic activity of the expressed proteins was not possible due to the absence of P450 reductase in bacterial membranes. The P450 enzyme activity was therefore determined in the presence of cumene hydroperoxide which serves as an artificial oxygen donor for P450s.

[2] = target: bacterial flavodoxin/NADPH-flavodoxin reductase system or another bacterial reductase; experiment: cell-based or functional assay
[3] = target: T1, human P450 reductase fused at its N-terminus to the bacterial pelB leader sequence (bacterial; human) (UniProt P16435); experiment: cell-based or functional assay
T1 sequence: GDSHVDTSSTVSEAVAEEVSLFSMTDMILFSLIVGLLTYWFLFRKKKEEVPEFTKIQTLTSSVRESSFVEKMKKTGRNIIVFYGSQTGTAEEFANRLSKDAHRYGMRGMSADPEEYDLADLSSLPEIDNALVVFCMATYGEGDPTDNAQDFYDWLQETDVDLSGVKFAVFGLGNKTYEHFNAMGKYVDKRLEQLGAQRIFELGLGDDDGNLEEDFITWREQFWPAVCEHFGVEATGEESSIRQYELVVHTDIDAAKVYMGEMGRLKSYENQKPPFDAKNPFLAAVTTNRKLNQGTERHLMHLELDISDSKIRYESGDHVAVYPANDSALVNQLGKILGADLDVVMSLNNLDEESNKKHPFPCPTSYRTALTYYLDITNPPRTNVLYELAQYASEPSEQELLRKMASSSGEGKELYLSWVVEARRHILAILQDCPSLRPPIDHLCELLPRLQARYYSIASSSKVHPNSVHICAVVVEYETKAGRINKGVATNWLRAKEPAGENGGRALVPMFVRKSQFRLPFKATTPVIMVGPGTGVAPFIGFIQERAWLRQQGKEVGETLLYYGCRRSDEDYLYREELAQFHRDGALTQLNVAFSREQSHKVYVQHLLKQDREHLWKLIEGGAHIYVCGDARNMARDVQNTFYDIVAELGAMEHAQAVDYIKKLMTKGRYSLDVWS

[4] = tested on: CYP3A4; conditions: reconstituted system, Gillam et al (1993); cited from earlier work
[5] = tested on: P450 reductase; experiment: Cytochrome c reductase activity of bacterial membrane fractions; conditions: membranes, expression from pCW, towards cytochrome c (FIG. 4)
Protocol: An equal volume of ice-cold distilled water was then added. The CYP3A4 content was determined using Fe^2—CO vs Fe^2+ difference spectra by adding 50 μl whole cell suspension in 1×TSE to 950 μl 100 mM Tris. Cl (pH 7.4), 10 mM CHAPS, 20% v/v glycerol, 1 mM EDTA and reducing by adding a few grains of sodium dithionite. A baseline of zero absorbance was recorded between 500 and 400 nm, then the sample cuvette was bubbled under a steady stream of CO for about 1 minute. A spectrum was then recorded and the yield of spectrally active CYP3A4/1 culture determined. At this stage, an aliquot of whole cells was withdrawn for metabolism studies. […] The CYP3A4 and reductase content of the membranes was determined. The yield of active reductase was evaluated by a spectrophotometric assay, as follows. To 990 μl 50 μM cytochrome c in 0.3 M potassium phosphate buffer (pH 7.7), 1-10 μg membrane protein was added, and a baseline recorded. 50 μM NADPH was added and ΔA550 nm was recorded over time. To determine the P450 contents of membranes, spectra were obtained as for whole cells.

[6] = target: T1, human P450 reductase fused at its N-terminus to the bacterial pelB leader sequence (bacterial; human); experiment: cell-based or functional assay; remark: listed apart in the source
[7] = target: T2, human P450 reductase fused at its N-terminus to the bacterial pelB leader sequence, P16435
T2 chain: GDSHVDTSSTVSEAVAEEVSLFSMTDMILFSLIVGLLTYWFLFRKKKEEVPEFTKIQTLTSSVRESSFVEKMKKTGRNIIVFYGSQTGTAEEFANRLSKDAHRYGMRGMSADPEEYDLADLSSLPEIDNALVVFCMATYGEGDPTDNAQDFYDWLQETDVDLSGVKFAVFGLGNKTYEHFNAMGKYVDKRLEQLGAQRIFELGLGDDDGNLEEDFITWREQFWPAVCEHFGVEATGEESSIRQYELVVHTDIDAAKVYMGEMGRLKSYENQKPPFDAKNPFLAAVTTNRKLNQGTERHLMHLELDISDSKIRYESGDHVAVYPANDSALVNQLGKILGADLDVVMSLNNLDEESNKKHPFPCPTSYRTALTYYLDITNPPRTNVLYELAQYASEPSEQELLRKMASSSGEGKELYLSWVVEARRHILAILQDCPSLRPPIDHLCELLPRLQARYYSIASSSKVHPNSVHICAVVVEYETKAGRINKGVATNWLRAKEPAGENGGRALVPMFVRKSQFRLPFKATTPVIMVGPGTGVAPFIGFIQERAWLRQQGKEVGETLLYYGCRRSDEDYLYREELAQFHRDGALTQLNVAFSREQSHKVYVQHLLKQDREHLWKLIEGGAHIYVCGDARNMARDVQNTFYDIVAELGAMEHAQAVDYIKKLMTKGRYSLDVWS

Molecule: ompA-CYP3A4: CYP3A4 fused at its N-terminus to the bacterial ompA leader sequence
- turnover number for the 6β-hydroxylation of testosterone [1]: 3.2 min⁻¹

Molecule: 17α-CYP3A4 (optimised CYP3A4 expressed from NF14 / pB216) (from UniProt P08684 1-503) (enzyme)
- testosterone 6β-hydroxylase turnover, JM109 NF14 whole cells (CYP3A4 alone) [2]: < 0.5 min⁻¹
- nifedipine oxidase turnover, JM109 pB216 whole cells [3]: 15.2 min^-1
- testosterone 6β-hydroxylase turnover, JM109 pB216 whole cells [3]: 17.3 min^-1

Molecule: bacterially-expressed CYP3A4: reconstituted system containing bacterially-expressed CYP3A4, Gillam et al (1993)
- turnover rates, testosterone 6β-hydroxylation [4]: up to 10 nmol 6β-hydroxytestosterone/minute/nmol P450

B1: pelB-reductase: human P450 reductase fused at its N-terminus to the pelB leader sequence (protein)
chain: GDSHVDTSSTVSEAVAEEVSLFSMTDMILFSLIVGLLTYWFLFRKKKEEVPEFTKIQTLTSSVRESSFVEKMKKTGRNIIVFYGSQTGTAEEFANRLSKDAHRYGMRGMSADPEEYDLADLSSLPEIDNALVVFCMATYGEGDPTDNAQDFYDWLQETDVDLSGVKFAVFGLGNKTYEHFNAMGKYVDKRLEQLGAQRIFELGLGDDDGNLEEDFITWREQFWPAVCEHFGVEATGEESSIRQYELVVHTDIDAAKVYMGEMGRLKSYENQKPPFDAKNPFLAAVTTNRKLNQGTERHLMHLELDISDSKIRYESGDHVAVYPANDSALVNQLGKILGADLDVVMSLNNLDEESNKKHPFPCPTSYRTALTYYLDITNPPRTNVLYELAQYASEPSEQELLRKMASSSGEGKELYLSWVVEARRHILAILQDCPSLRPPIDHLCELLPRLQARYYSIASSSKVHPNSVHICAVVVEYETKAGRINKGVATNWLRAKEPAGENGGRALVPMFVRKSQFRLPFKATTPVIMVGPGTGVAPFIGFIQERAWLRQQGKEVGETLLYYGCRRSDEDYLYREELAQFHRDGALTQLNVAFSREQSHKVYVQHLLKQDREHLWKLIEGGAHIYVCGDARNMARDVQNTFYDIVAELGAMEHAQAVDYIKKLMTKGRYSLDVWS
modifications: left off: small tags and cut ends
- reductase activity compared to the native P450 reductase [5]: almost ten fold higher

B2: 17α-CYP2A6 (protein)
chain: MLASGMLLVALLVCLTVMVLMSVWQQRKSKGKLPPGPTPLPFIGNYLQLNTEQMYNSLMKISERYGPVFTIHLGPRRVVVLCGHDAVREALVDQAEEFSGRGEQATFDWVFKGYGVVFSNGERAKQLRRFSIATLRDFGVGKRGIEERIQEEAGFLIDALRGTGGANIDPTFFLSRTVSNVISSIVFGDRFDYKDKEFLSLLRMMLGIFQFTSTSTGQLYEMFSSVMKHLPGPQQQAFQLLQGLEDFIAKKVEHNQRTLDPNSPRDFIDSFLIRMQEEEKNPNTEFYLKNLVMTTLNLFIGGTETVSTTLRYGFLLLMKHPEVEAKVHEEIDRVIGKNRQPKFEDRAKMPYMEAVIHEIQRFGDVIPMSLARRVKKDTKFRDFFLPKGTEVYPMLGSVLRDPSFFSNPQDFNPQHFLNEKGQFKKSDAFVPFSIGKRNCFGEGLARMELFLFFTTVMQNFRLKSSQSPKDIDVSPKHVGFATIPRNYTMSFLPR
- coumarin 7-hydroxylase activity, shocked cells (nmol/min/nmol P450) [3]: 0.75

B3: ompA-CYP2A6 (enzyme, human)
chain: MLASGMLLVALLVCLTVMVLMSVWQQRKSKGKLPPGPTPLPFIGNYLQLNTEQMYNSLMKISERYGPVFTIHLGPRRVVVLCGHDAVREALVDQAEEFSGRGEQATFDWVFKGYGVVFSNGERAKQLRRFSIATLRDFGVGKRGIEERIQEEAGFLIDALRGTGGANIDPTFFLSRTVSNVISSIVFGDRFDYKDKEFLSLLRMMLGIFQFTSTSTGQLYEMFSSVMKHLPGPQQQAFQLLQGLEDFIAKKVEHNQRTLDPNSPRDFIDSFLIRMQEEEKNPNTEFYLKNLVMTTLNLFIGGTETVSTTLRYGFLLLMKHPEVEAKVHEEIDRVIGKNRQPKFEDRAKMPYMEAVIHEIQRFGDVIPMSLARRVKKDTKFRDFFLPKGTEVYPMLGSVLRDPSFFSNPQDFNPQHFLNEKGQFKKSDAFVPFSIGKRNCFGEGLARMELFLFFTTVMQNFRLKSSQSPKDIDVSPKHVGFATIPRNYTMSFLPR
- coumarin 7-hydroxylase activity, shocked cells (nmol/min/nmol P450) [6]: < 0.02

B4: ompA(+2)-CYP2A6 (enzyme, human)
chain: APMLASGMLLVALLVCLTVMVLMSVWQQRKSKGKLPPGPTPLPFIGNYLQLNTEQMYNSLMKISERYGPVFTIHLGPRRVVVLCGHDAVREALVDQAEEFSGRGEQATFDWVFKGYGVVFSNGERAKQLRRFSIATLRDFGVGKRGIEERIQEEAGFLIDALRGTGGANIDPTFFLSRTVSNVISSIVFGDRFDYKDKEFLSLLRMMLGIFQFTSTSTGQLYEMFSSVMKHLPGPQQQAFQLLQGLEDFIAKKVEHNQRTLDPNSPRDFIDSFLIRMQEEEKNPNTEFYLKNLVMTTLNLFIGGTETVSTTLRYGFLLLMKHPEVEAKVHEEIDRVIGKNRQPKFEDRAKMPYMEAVIHEIQRFGDVIPMSLARRVKKDTKFRDFFLPKGTEVYPMLGSVLRDPSFFSNPQDFNPQHFLNEKGQFKKSDAFVPFSIGKRNCFGEGLARMELFLFFTTVMQNFRLKSSQSPKDIDVSPKHVGFATIPRNYTMSFLPR
- coumarin 7-hydroxylase activity, membranes [7]: 1
- coumarin 7-hydroxylase activity, shocked cells (nmol/min/nmol P450) [6]: 0.29
